Earlier results, collected in paper PMC12583094, “A novel antioxidant peptide from black soybean [Glycine max (L.) Merr.] with verified MPO interaction and multi-scale antioxidant activity” (Frontiers in Nutrition, 2025).

System: MPO
Source text: The RU values increased from approximately 0.79 RU to around 24.51 RU with increasing concentrations.

- binding to MPO by SPR: clear dose-dependent binding effect
B1: ceruloplasmin: a physiological MPO inhibitor (protein, UniProt P00450 20-1065, looked up)
Ceruloplasmin: KEKHYYIGIIETTWDYASDHGEKKLISVDTEHSNIYLQNGPDRIGRLYKKALYLQYTDETFRTTIEKPVWLGFLGPIIKAETGDKVYVHLKNLASRPYTFHSHGITYYKEHEGAIYPDNTTDFQRADDKVYPGEQYTYMLLATEEQSPGEGDGNCVTRIYHSHIDAPKDIASGLIGPLIICKKDSLDKEKEKHIDREFVVMFSVVDENFSWYLEDNIKTYCSEPEKVDKDNEDFQESNRMYSVNGYTFGSLPGLSMCAEDRVKWYLFGMGNEVDVHAAFFHGQALTNKNYRIDTINLFPATLFDAYMVAQNPGEWMLSCQNLNHLKAGLQAFFQVQECNKSSSKDNIRGKHVRHYYIAAEEIIWNYAPSGIDIFTKENLTAPGSDSAVFFEQGTTRIGGSYKKLVYREYTDASFTNRKERGPEEEHLGILGPVIWAEVGDTIRVTFHNKGAYPLSIEPIGVRFNKNNEGTYYSPNYNPQSRSVPPSASHVAPTETFTYEWTVPKEVGPTNADPVCLAKMYYSAVEPTKDIFTGLIGPMKICKKGSLHANGRQKDVDKEFYLFPTVFDENESLLLEDNIRMFTTAPDQVDKEDEDFQESNKMHSMNGFMYGNQPGLTMCKGDSVVWYLFSAGNEADVHGIYFSGNTYLWRGERRDTANLFPQTSLTLHMWPDTEGTFNVECLTTDHYTGGMKQKYTVNQCRRQSEDSTFYLGERTYYIAAVEVEWDYSPQREWEKELHHLQEQNVSNAFLDKGEFYIGSKYKKVVYRQYTDSTFRVPVERKAEEEHLGILGPQLHADVGDKVKIIFKNMATRPYSIHAHGVQTESSTVTPTLPGETLTYVWKIPERSGAGTEDSACIPWAYYSTVDQVKDLYSGLIGPLIVCRRPYLKVFNPRRKLEFALLFLVFDENESWYLDDNIKTYSDHPEKVNKDDEEFIESNKMHAINGRMFGNLQGLTMHVGDEVNWYLMGMGNEIDLHTVHFHGHSFQYKHRGVYSSDVFDIFPGTYQTLEMFPRTPGIWLLHCHVTDHIHAGMETTYTVLQNEDTKSG
